Columns and labels:
[1] = molecular target: T1, plasma kallikrein catalytic domain Mutant 1 (S478A, N481A, S506A, Y507A) (human, UniProt P03952 391-638); assay: enzyme inhibition assay: rate (F/s) of substrate peptide cleavage by PKal against [IgG] (nM), fitted to the Morrison equation; apparent Ki (Ki,app)
T1 construct: Expressed in Pichia pastoris
Experimental: (§1) Briefly, PKal and a Fab at various concentrations are incubated together for 1 hour at 30° C. A substrate peptide (cleavable by PKal) is then added to this PKal-Fab mixture. The rate of substrate peptide cleavage/proteolysis is then measured, and plotted against the concentrations of the Fab. This plot is then fit to the Morrison equation, which calculates the K_{i,app} value. The results thus obtained are shown in FIGS. 5A-5D and Table 3 below:
(§2) The inhibitory activity of X115-F02 against the wild-type PKal and the mutants were carried out using the method described in Example 3 above and the K_{i,app} values were determined.

[2] = molecular target: T2, wild type plasma kallikrein catalytic domain (recombinant, Pichia pastoris) (human, UniProt P03952 391-638); assay: as above
T2 construct: also called wild-type PKal
T2 sequence (P03952 391-638): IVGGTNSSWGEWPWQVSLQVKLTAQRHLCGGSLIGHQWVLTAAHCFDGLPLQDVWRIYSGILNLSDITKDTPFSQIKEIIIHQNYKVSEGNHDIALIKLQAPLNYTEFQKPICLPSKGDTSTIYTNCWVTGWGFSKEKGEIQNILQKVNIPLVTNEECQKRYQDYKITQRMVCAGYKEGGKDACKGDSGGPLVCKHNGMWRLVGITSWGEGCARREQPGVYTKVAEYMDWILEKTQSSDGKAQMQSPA
Experimental: as §1, §2

[3] = molecular target: T3, plasma kallikrein catalytic domain Mutant 2 (R551A, Q553A, Y555A, T558A, R560A) (human, UniProt P03952 391-638); assay: as above
T3 construct: Expressed in Pichia pastoris
T3 sequence (P03952 391-638 R551A/Q553A/Y555A/T558A/R560A): as the sequence (P03952 391-638) above, with R161A, Q163A, Y165A, T168A, R170A counted along it
Experimental: as §1, §2

[4] = molecular target: T4, plasma kallikrein catalytic domain Mutant 4 (N396A, S398A, W399A) (human, UniProt P03952 391-638); assay: as above
T4 construct: Expressed in Pichia pastoris
T4 sequence (P03952 391-638 N396A/S398A/W399A): as the sequence (P03952 391-638) above, with N6A, S8A, W9A counted along it
Experimental: as §1, §2

[5] = molecular target: T3, plasma kallikrein catalytic domain …; assay: Ki,app; IgG inhibition of PKal catalytic domain cleavage of a substrate peptide, Morrison fit
Experimental: as §1, §2

[6] = molecular target: T5, human plasma kallikrein (PKal) (human, UniProt P03952 20-638); assay: enzyme inhibition assay: rate (F/s) of substrate peptide cleavage by PKal against [Fab] (nM), fitted to the Morrison equation; apparent Ki (Ki,app); Table 3 prints it rounded, 1405.6 nM
T5 construct: Active PKal is cleaved at the marked R/I site into two disulfide-linked chains; also called human Pkal; active PKal
T5 sequence (P03952 20-638 limits assumed): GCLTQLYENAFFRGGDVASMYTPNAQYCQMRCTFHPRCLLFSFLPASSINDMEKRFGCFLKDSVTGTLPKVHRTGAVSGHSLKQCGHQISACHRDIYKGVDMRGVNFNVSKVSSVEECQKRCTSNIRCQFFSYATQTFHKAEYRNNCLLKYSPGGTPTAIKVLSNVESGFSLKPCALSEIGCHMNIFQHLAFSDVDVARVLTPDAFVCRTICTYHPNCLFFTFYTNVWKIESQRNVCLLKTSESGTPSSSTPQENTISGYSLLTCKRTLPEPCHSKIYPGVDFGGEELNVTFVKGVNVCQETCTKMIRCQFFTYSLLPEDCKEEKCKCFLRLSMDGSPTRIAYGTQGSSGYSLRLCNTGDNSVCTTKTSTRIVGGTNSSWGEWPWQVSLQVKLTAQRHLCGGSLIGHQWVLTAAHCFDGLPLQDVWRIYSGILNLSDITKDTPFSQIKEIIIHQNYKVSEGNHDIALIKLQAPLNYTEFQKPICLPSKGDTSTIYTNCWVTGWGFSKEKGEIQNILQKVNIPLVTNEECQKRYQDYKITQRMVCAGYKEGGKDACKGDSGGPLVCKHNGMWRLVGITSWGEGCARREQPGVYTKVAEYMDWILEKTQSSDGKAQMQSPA

[7] = molecular target: T5, human plasma kallikrein (PKal); assay: Ki,app; Fab inhibition of PKal cleavage of a substrate peptide, Morrison fit
Experimental: as §1, with “below: […]” for “below:”

[8] = molecular target: T5, human plasma kallikrein (PKal); assay: enzyme inhibition assay: rate (F/s) of substrate peptide cleavage by PKal against [2930] (pM), fitted to the Morrison equation; apparent Ki (Ki,app); no unit stands beside the value, pM is the unit of the concentration axis; Table 3 prints 0.06 nM
Experimental: as §1, with “below: […]” for “below:”

[9] = molecular target: T5, human plasma kallikrein (PKal); assay: enzyme inhibition assay: rate (F/s) of substrate peptide cleavage by PKal against [Fab] (nM), fitted to the Morrison equation; apparent Ki (Ki,app); Table 3 prints it rounded, 2.2 nM
Experimental: as §1, with “below: […]” for “below:”

[10] = molecular target: T5, human plasma kallikrein (PKal); assay: enzyme inhibition assay: rate (F/s) of substrate peptide cleavage by PKal against [Fab] (nM), fitted to the Morrison equation; apparent Ki (Ki,app); Table 3 prints 0.33 nM
Experimental: as §1, with “below: […]” for “below:”

[11] = molecular target: T5, human plasma kallikrein (PKal); assay: enzyme inhibition assay: rate (F/s) of substrate peptide cleavage by PKal against [Fab] (nM), fitted to the Morrison equation; apparent Ki (Ki,app); Table 3 prints 1.1 nM
Experimental: as §1, with “below: […]” for “below:”

[12] = molecular target: T5, human plasma kallikrein (PKal); assay: enzyme inhibition assay: rate (F/s) of substrate peptide cleavage by PKal against [Fab] (nM), fitted to the Morrison equation; apparent Ki (Ki,app); Table 3 prints it rounded, 14.7 nM

T1 sequence (P03952 391-638 S478A/N481A/C503S/S506A/K507A limits assumed): as the sequence (P03952 391-638) above, with S88A, N91A, C113S, S116A, K117A counted along it

B1: X115-F02 (antibody, human IgG1, kappa, V domains shown)
VH: EVQLLESGGGLVQPGGSLRLSCAASGFTFSHYIMMWVRQAPGKGLEWVSGIYSSGGITVYADSVKGRFTISRDNSKNTLYLQMNSLRAEDTAVYYCAYRRIGVPRRDEFDIWGQGTMVTVSS
VL: DIQMTQSPSTLSASVGDRVTITCRASQSISSWLAWYQQKPGKAPKLLIYKASTLESGVPSRFSGSGSGTEFTLTISSLQPDDFATYYCQQYNTYWTFGQGTKVEIKR
notes: also called mutant X115-F02
Ki [1]: 0.14 nM | Ki [2]: 0.09 nM | Ki [3]: 5.9 nM | Ki [4]: 0.1 nM | fold reduction of potency (Ki,app) against wild-type PKal [5]: ~65 fold

B2: X133-G05 (Fab, V domains shown)
VH: EVQLLESGGGLVQPGGSLRLSCAASGFTFSHYIMMWVRQAPGKGLEWVSGIYSSGGITVYADSVKGRFTISRDNSKNTLYLQMNSLRAEDTAVYYCAYRRTGSPRRDAFDIWGQGTMVTVSS
VL: DIQMTQSPSTLSASVGDRVTITCRASQSISSWLAWYQQKPGKAPNLLIYKASTLESGVPSRFSGSGSGTEFTLTISSLQPDDFATYYCQQYNTYWTFGQGTKVEIK
Ki [6]: 1410 nM | Ki [7]: 1410 nM

B3: M0199-A08 (Fab, V domains shown)
VH: EVQLLESGGGLVQPGGSLRLSCAASGFTFSHYIMMWVRQAPGKGLEWVSGIYSSGGITVYADSVKGRFTISRDNSKNTLYLQMNSLRAEDTAVYYCAYRRIGVPRRDEFDIWGQGTMVTVSS
VL: DIQMTQSPSTLSASVGDRVTITCRASQSISSWLAWYQQKPGKAPNLLIYKASTLESGVPSRFSGSGSGTEFTLTISSLQPDDFATYYCQQYNTYWTFGQGTKVEIK
notes: also called M199-A08
Ki [7]: 0.06 nM | Ki [8]: 0.099 nM

B4: X133-B02 (Fab, V domains shown)
VH: EVQLLESGGGLVQPGGSLRLSCAASGFTFSHYIMMWVRQAPGKGLEWVSGIYSSGGITVYADSVKGRFTISRDNSKNTLYLQMNSLRAEDTAVYYCAYRRIGIPRRDAFDIWGQGTMVTVSS
VL: DIQMTQSPSTLSASVGDRVTITCRASQSISSWLAWYQQKPGKAPNLLIYKASTLESGVPSRFSGSGSGTEFTLTISSLQPDDFATYYCQQYNTYWTFGQGTKVEIK
notes: HC CDR3 variant of M0162-A04, tested as Fab
Ki [7]: 2.2 nM | Ki [9]: 2.22 nM

B5: X133-D06 (Fab, V domains shown)
VH: EVQLLESGGGLVQPGGSLRLSCAASGFTFSHYIMMWVRQAPGKGLEWVSGIYSSGGITVYADSVKGRFTISRDNSKNTLYLQMNSLRAEDTAVYYCAYRRIGIPRRDEFDIWGQGTMVTVSS
VL: DIQMTQSPSTLSASVGDRVTITCRASQSISSWLAWYQQKPGKAPNLLIYKASTLESGVPSRFSGSGSGTEFTLTISSLQPDDFATYYCQQYNTYWTFGQGTKVEIK
notes: as for B4
Ki [10]: 0.301 nM | Ki [7]: 0.33 nM

B6: X135-A03 (Fab, V domains shown)
VH: EVQLLESGGGLVQPGGSLRLSCAASGFTFSHYIMMWVRQAPGKGLEWVSGIYSSGGITVYADSVKGRFTISRDNSKNTLYLQMNSLRAEDTAVYYCAYRRTGIPRRDEFDIWGQGTMVTVSS
VL: DIQMTQSPSTLSASVGDRVTITCRASQSISSWLAWYQQKPGKAPNLLIYKASTLESGVPSRFSGSGSGTEFTLTISSLQPDDFATYYCQQYNTYWTFGQGTKVEIK
notes: as for B4
Ki [7]: 1.1 nM | Ki [11]: 1.25 nM

B7: X133-F10 (Fab, V domains shown)
VH: EVQLLESGGGLVQPGGSLRLSCAASGFTFSHYIMMWVRQAPGKGLEWVSGIYSSGGITVYADSVKGRFTISRDNSKNTLYLQMNSLRAEDTAVYYCAYRRTGLPRRDAFDIWGQGTMVTVSS
VL: DIQMTQSPSTLSASVGDRVTITCRASQSISSWLAWYQQKPGKAPNLLIYKASTLESGVPSRFSGSGSGTEFTLTISSLQPDDFATYYCQQYNTYWTFGQGTKVEIK
Ki [12]: 14.7 nM | Ki [7]: 14.7 nM

B8: M0200-B01 (Fab, V domains shown)
VH: EVQLLESGGGLVQPGGSLRLSCAASGFTFSHYIMMWVRQAPGKGLEWVSGIYSSGGITVYADSVKGRFTISRDNSKNTLYLQMNSLRAEDTAVYYCAYRRTGIPRRDAFDSWGQGTMVTVSS
VL: DIQMTQSPSTLSASVGDRVTITCRASQSISSWLAWYQQKPGKAPNLLIYKASTLESGVPSRFSGSGSGTEFTLTISSLQPDDFATYYCQQYNTYWTFGQGTKVEIK
Ki [7]: 3.6 nM

— patent US20150274841A1 (DYAX, published 2015)
